Assay results from the DeepSol protein solubility set.

Assay: soluble on expression in E. coli; label from the status in PepcDB or PDB records

Which “soluble on expression in E. coli” value does the source give for “MGHHHHHHSHMNNQKVVAVLLQECRALLPSELRTLIQEAKEMKWPFVPEKWQYKQAVGPEDKTNLKDVIGAGLQQLLASLRASILARDCAAAAAIVFLVDRFLYGLDVSGKLLQVAKGLHKLQPATPIAPQVVIRQARISVNSGSHPAKHSM” here?
Its value is “not soluble”.

Which “soluble on expression in E. coli” value does the source give for “MGSDKIHHHHHHMATLGANASLYSEQHRITYYECDRTGRATLTTLIDIAVLASEDQSDALGLTTEMVQSHGVGWVVTQYAIDITRMPRQDEVVTIAVRGSAYNPYFAYREFWIRDADGQQLAYITSIWVMMSQTTRRIVKILPELVAPYQSEVVKRIPRLPRPISFEATDTTITKPYHVRFFDIDPNRHVNNAHYFDWLVDTLPATFLLQHDLVHVDVRYENEVKYGQTVTAHANILPSEVADQVTTSHLIEVDDYYCCEVTIQWRTLPEPIQ” here?
The value was “not soluble”.

For “MDLALFDLDETLISDDSTGLWIRWLVNEGLAPFELSEQEQTLMTQYYQGQLSMAGYMAATLSPLVGKHTAEVAGWVEHFIAHDILPRIYPQALEKLAWHRDRGDYIVIISASGEHLVTPIAKHFAADTALSIGVTVENDRYTGQTYGTLTYQKGKVDRLNQWLSASPQLNFKRSYGYSDSINDQPLLEYVDHAAVINPGAELIDLAVLHQWDIHHW”, which “soluble on expression in E. coli” value is on record?
The value was “not soluble”.

Which “soluble on expression in E. coli” value does the source give for “MAGNFWQSSHYLQWILDKQDLLKERQKDLKFLSEEEYWKLQIFFTNVIQALGEHLKLRQQVIATATVYFKRFYARYSLKSIDPVLMAPTCVFLASKVEEFGVVSNTRLIAAATSVLKTRFSYAFPKEFPYRMNHILECEFYLLELMDCCLIVYHPYRPLLQYVQDMGQEDMLLPLAWRIVNDTYRTDLCLLYPPFMIALACLHVACVVQQKDARQWFAELSVDMEKILEIIRVILKLYEQWKNFDERKEMATILSKMPKPKPPPNSEGEQGPNGSQNSSYSQS” here?
The value was “soluble”.

With “MSLSSIRKKDVERFILSDDYKPMVLKELYKKFRAKTREQRKKVREVVKKLEKEGRIFRDSRGRYRKLGEDLKVGTIEFTRSGYVAFVITDDFEEIAVPVEDTKYAMHKDRVVVEITGTWRGLPRGRVVRVLERGLKRVVGVFDHKGTFGFVVPDDPKIAYDFYVAPENIDGAKPNQKVIAEILKYPSPGKNPEAKVVKVLGDLDDPSIDLPSVIVKHDLPEPGEFPEEVIREANAIPARVRKKDLVGRKDLRDKVIVTIDGEDAKDFDDAISVEKLPNGNYLLGVHIADVSHYVKEGSALDQEAFKRGTSVYLIDTVIPMLPFRLSNGICSLVEGKDRLTMSVEMEIDRDGRVVRYDVYPSVIKSKKRMIYERVNEFLEDPSSMKEYEPFKDLIYNAVELAEILREARRKRGAILDIESDEVKVILDENGQVVDIVPRKRGIAEKLIEEFMIRANETVAEIFDHAGLPFMYRVHEEPDPETIFQLKNYLEAMGIRAKFSHKIHPGMLQKLLEKVKDHPLRSSVERLLVRSMKRAMYSAVNIGHFGLASYAYTHFTSPIRRYPDLVVHRLLKLYLEQNGYFTPEQIEKFSKVLPKIAKHCSRRERVADEAEWDLVAMKKVEYIARHIGEVFNVVVTNITKFGLFVEIPEKSISGLVHISTLDDYYYYDETRNMLIGKRKGKVFRLGDVLKAKVVRADKIRGEIDFVLVEEDEEEGHHHHHH” as the sequence, how does the “soluble on expression in E. coli” value read?
The value was “not soluble”.

Which “soluble on expression in E. coli” value does the source give for “SLDLNDTYSGKREPFSGDHSADGFEVTSRSEMSSGSEISPVSEMPSSSEPSSGADYDYSEEYDNEPQIPGYIVDDSVRVEQVVKPPQNKTESENTSDKPKRKKKGGKNGKNRRNRKKKNPCNAEFQNFCIHGECKYIEHLEAVTCKCQQEYFGERCGEKSMKTHSMIDSSEG” here?
The value was “not soluble”.

With “MGESHAPSKPKLDGELCLRPSSSVFLGDQQLYFTQEYLRTNSLNLKYVVYFTACQFSGPIAVAYSPRPASWYIWIRTISGRILKRDMAFNEPVFMEWTRAHCLLVLNKAGRAHIFSSLGEKISEVIFDSQMSDVHECRTFATSRGDSGIAVMDVDGQVSVVNSVSEPVIWSMKPPYSEMPTAWTAFQPHSQLTHILLIFEAVFLMGCQGESLREQSHAASWVDSNTKYVKCVVDDARSRIAMMTESGKIQIVSIDLSTCFCTVEITDHDIAKCINFGWVGNSAVFVQMSPSLIVFVNVSARRKPGDEVQIYEKMTANAKISIEPDGIRLFESTQVEFVEAASREKIAVLNRNPNEDGAHLYKAAQEMSQGTGHNSFAASTVIQDLYKAIDDCISTACDTWQPEEQKLLLKAARFGMAYTNTTPDTTKLMRAIKEIRVLNELRMVRTGIPLTHRQFRAIGETCVINRLIDMGSYSVAIKVAQWLGGETSENVDRVLLEWVRRSISKVSKSNMKMDQPALEALDEKISAKLLQFPHVSIADAARRAIEAKLPELARLFIRRETDDANHVAVLLQLNDVSAALQKASASQRPQLIHQVVRHLMNSESRSSYELAISRIPLAQCLYQDLVRQEGETRGASSRQMLALLEQASDFERQTLFHFDVAETERNPDERLNALRRAKDAAKSMGDKAIEEILNDVSAFAPLQIQRGQADMSVRDTVIEMAHDTAKVAQLKQQARLTDKQVLLWTIEGLAKKGKMEQLFDLAQKRSPIGYAPFVKACVRYKRLDEIKKYFAKVNGYPDLVAAHLAMKNYVEAAKLAYDRRDRDVLHAVHMKSHEDPTQCPRVGQFLRSLDQN” as the sequence, how does the “soluble on expression in E. coli” value read?
The value was “not soluble”.

For “MSLTDRTIGEAAELLGVTTRTLRHWDSIGLLQPSWRTTTDYRLYTEDDVERALQILIYRAAGIGLKDIAEVLDQPDSANQHLRRQRELLVEQIGQLHRMVRAVDEILGKDAISVKEKIEIFGEDLPKYQEEAFQRWGEGHHHHHH”, which “soluble on expression in E. coli” value is on record?
The value was “soluble”.

With “MTVELKNEYLTVLINEAGAELSSVKSSDGIEYMWQADKTFWGRHAPVLFPIVGRLKDDQYTVAGQAYHMGQHGFARDNDFTVVNQTATQATFELTDSRATREMYPYAFRLRLIYTLTDHELTVNYNVHNPANQELLFSVGGHPAFNVPLADPAGTLADYKITVAPRKVYAHIPLQAPLNDAANADDFDLTKPLALSRDLFKDDALILDLNHHETTLMLDTDLDDHGVAMTIEDAPYVGMWSPYPAEAPFVCLEPWWGIADNVDSDGQLSHKMGINRLAANQTFDAKYAISFFLEHHHHHH” as the sequence, how does the “soluble on expression in E. coli” value read?
The value was “not soluble”.

Which “soluble on expression in E. coli” value does the source give for “MGSDKIHHHHHHMITAAVVTFHTSRKDLIRLIDCVLQSSVDKFFIIDNSTNDALRELESVSERITYIYSDNLGFGSGHNIAIDRAIDLGSDYHIIINPDIYWNGDIIEQLVQFMDQNKDCGLVMPKILYPNGEVQYLCKLLPTPLDLFGRRFIPFKMFQEKRNAWYEMHWSGYDKVMEVPSLSGCFMFIRTDILKKTGGFDKRFFMYAEDMDLCRRIGEITRTMYYPSVLVFHEYEKGSYKNRKLLKYHICSIIKYFNKWGWFIDKKRRKKNDYCLKLTEHIRN” here?
Its value is “not soluble”.

For “MKQASAIPQPKTYGPLKNLPHLEKEQLSQSLWRIADELGPIFRFDFPGVSSVFVSGHNLVAEVCDEKRFDKNLGKGLQKVREFGGDGLFTSWTHEPNWQKAHRILLPSFSQKAMKGYHSMMLDIATQLIQKWSRLNPNEEIDVADDMTRLTLDTIGLCGFNYRFNSFYRDSQHPFITSMLRALKEAMNQSKRLGLQDKMMVKTKLQFQKDIEVMNSLVDRMIAERKANPDENIKDLLSLMLYAKDPVTGETLDDENIRYQIITFLIAGHETTSGLLSFAIYCLLTHPEKLKKAQEEADRVLTDDTPEYKQIQQLKYIRMVLNETLRLYPTAPAFSLYAKEDTVLGGEYPISKGQPVTVLIPKLHRDQNAWGPDAEDFRPERFEDPSSIPHHAYKPFGNGQRACIGMQFALQEATMVLGLVLKHFELINHTGYELKIKEALTIKPDDFKITVKPRKTAAINVQRKEQADIKAETKPKETKPKHGTPLLVLFGSNLGTAEGIAGELAAQGRQMGFTAETAPLDDYIGKLPEEGAVVIVTASYNGAPPDNAAGFVEWLKELEEGQLKGVSYAVFGCGNRSWASTYQRIPRLIDDMMKAKGASRLTAIGEGDAADDFESHRESWENRFWKETMDAFDINEIAQKEDRPSLSITFLSEATETPVAKAYGAFEGIVLENRELQTAASTRSTRHIELEIPAGKTYKEGDHIGILPKNSRELVQRVLSRFGLQSNHVIKVSGSAHMAHLPMDRPIKVVDLLSSYVELQEPASRLQLRELASYTVCPPHQKELEQLVSDDGIYKEQVLAKRLTMLDFLEDYPACEMPFERFLALLPSLKPRYYSISSSPKVHANIVSMTVGVVKASAWSGRGEYRGVASNYLAELNTGDAAACFIRTPQSGFQMPNDPETPMIMVGPGTGIAPFRGFIQARSVLKKEGSTLGEALLYFGCRRPDHDDLYREELDQAEQDGLVTIRRCYSRVENEPKGYVQHLLKQDTQKLMTLIEKGAHIYVCGDGSQMAPDVERTLRLAYEAEKAASQEESAVWLQKLQDQRRYVKDVW”, which “soluble on expression in E. coli” value is on record?
Its value is “soluble”.
